Results reported in article PMC10190533, “Engineering Escherichia coli to Utilize Erythritol as Sole Carbon Source” (Advanced Science, 2022).

Target: the molecule itself
Test: SEC + native gel or EMSA

B1: eryD, erythritol-binding transcriptional repressor from Ochrobactrum spp. (natural protein)
chain: MADADDSLALRAAWLHFVAGMTQSAVAKRLGLPSVKAHRLIAKAVADGAVKVTIDGDITECIDLENRLADLYGLDYCEVAPDIGEEGLPLMALGHAGANFMRREIEHGDHEVIGIGHGRTLSAAVGYMPRVMANDLRFVSLLGGLTRNFAANPHDVMHRIAEKTGMPAYVMPVPFFANTAEDREVLLAQRGVTTVFDMGCRAELKIVGIGTVDAQAQLVTSGMIELGEVEEIANLGGVGEMLGHFFNANGQWLETALTGRTIAASVENADMSRIVALAGGLSKVDAIRAVLKSGRLYGLITDERTAKALIGQPNGK
notes: also called erythritol-responding genetic repressor eryD
stoichiometry N: 4
